The series can be described thus: yeast display, Sf9 membrane polyspecificity reagent, FACS + sequencing; frameworks hold sequencing errors. In outline: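 Synthetic nanobody libraries on Saccharomyces cerevisiae BJ5465 were galactose-induced for 36–48 hours, stained 1 hour at 4 °C with 10% biotinylated, detergent-solubilized Sf9 membrane reagent and enriched on streptavidin microbeads. FACS then separated cells into low and high (top ~1%) gates by anti-HA (expression) and streptavidin (reagent binding) fluorescence. Genes were colony-PCR amplified, MiSeq 2 × 250 sequenced and CDR-length filtered. A clone's polyreactivity label is that of its gate of origin.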
For “QVQLVESGGGLVQAGGSLRLSCAASGSTFEYNAMGWYRQAPGKERELVASSTNYADSVKGRFTISRDNAKNTVYLQMNSLKPDDTEVYYCARDRYYTREWYWYRHDHWGQGTQVTVSS”, the “polyreactivity (PSR sort gate)” value is on record as “low polyreactivity”.

Turning to “QVQLVESGGGLVQAGGSLRLSCAASGSTFEYYAMGSYRQAPGKERELVATISIDGRTNYADSVKGRFTISRDNAKNTVYLQMNSLKPEDTAVYYCAARPYWRQRYDYWGQGTQVTVSS”, the “polyreactivity (PSR sort gate)” value was “low polyreactivity”.

For the sequence “QVQLVESGGGLVQAGGSLRLSCAASGSTFEYYAMGWYRQAPGKERELVAAITGSGDNTYYADSVKGRFTISRDNAKNTVYLQMNSLKPEDTAVYYCAATMRVKGQYGRMYYWGQGTQVTVSS”, the “polyreactivity (PSR sort gate)” value is recorded as “high polyreactivity”.

Take “QVQLVESGGGLVQAGGSLRLSCAASGSTFEYYAMGWYRQAPGKERELVAAITRSGSRTRYADSVKGRFTISRDNAKNTVYLQMNSLKPEDTAVYYCARLSSARYPFDSWGQGTQVTVSS”: the “polyreactivity (PSR sort gate)” value is on record as “high polyreactivity”.

As for “QVQLVESGGGLVQAGGSLRLSCAASGSTFEYYAMVWYRQAAGKERELVDRINWSGGSTYYADSVKGRFTISRDNAKNTVYLQMNSLKPEDTAVYYCNRKLTRFTCFPLAYWGQGTQVTVSS”, the “polyreactivity (PSR sort gate)” value is on record as “low polyreactivity”.

As to “QVQLVESGGGLVQAGGSLRLSCAASGSTFFANVMGWYRQAPGKEREFVAAINYRTGSTHYSDSVKGRFTISRDNAKNTVYLQMNSLKPEDTAVYYCAVYYQYTDVYQYSGYSVRYDYWGQGTQVTVSS”, the “polyreactivity (PSR sort gate)” value is on record as “low polyreactivity”.

Regarding “QVQLVESGGGLVQAGGSLRLSCAASGSTFFDYAMGWYRQAPGKERELVAVISDGGTTTYADSVKGRFTISRDNAKNTVYLQMNSLKPEDTAVYYCAAENQDGLLVILGGYGYWGQGTQVTVSS”, the “polyreactivity (PSR sort gate)” value is “low polyreactivity”.

For the sequence “QVQLVESGGGLVQAGGSLRLSCAASGSTFFEYAMGWYRQAPGKVREFVAGISWSGGITYYADSVKGRFTISRDNAKNTVYLQMNSLKPEDTAVYYCATAGGDWYGVDYWGQGTQVTVSS”, the “polyreactivity (PSR sort gate)” value is “low polyreactivity”.

Consider “QVQLVESGGGLVQAGGSLRLSCAASGSTFFEYTMGWYRQAPGKEREFVADIRGRDGSTSYADSVKGRFTISRDNAKNTVYLQMNSLKPEDTAVYYCNADVTRWTRSPWPYTYDYWGQGTQVTVSS”, for which the “polyreactivity (PSR sort gate)” value is recorded as “low polyreactivity”.

Turning to “QVQLVESGGGLVQAGGSLRLSCAASGSTFFFNAMGWYRQAPGKERELVAAITGRSGSTYYADSVKGRFTISRDNAKNTVYIQMNSLKPEDTAVYYCAADYVFVATPLRYDYWGQGTQVTVSS”, the “polyreactivity (PSR sort gate)” value is recorded as “low polyreactivity”.

Regarding “QVQLVESGGGLVQAGGSLRLSCAASGSTFFGNAMGWYIQAPGKERELVAAIRFSGVGTYYADSVKGRFTISRDNAKNTVYLQLNSLKPEYTEVFYCAAESYYKYYWGQGTQVTVSS”, the “polyreactivity (PSR sort gate)” value was “low polyreactivity”.

As to “QVQLVESGGGLVQAGGSLRLSCAASGSTFFGNAMGWYRQAPGKERELVAAITTGSGRTYYADSVKGRFTISRDNAKNTVYLQMNSLKPEDTAVYYCAARFSERVYVVPFGYWGQGTQVTVSS”, the “polyreactivity (PSR sort gate)” value is “high polyreactivity”.

Consider “QVQLVESGGGLVQAGGSLRLSCAASGSTFFGNTMGWYRQAPGKERELVAAITYRGSTYYADSVKGRFTISRDNAKNTVYLQMNSLKPEDTAVYYCAADGRWYNSESEYDYWGQGTQVTVSS”, for which the “polyreactivity (PSR sort gate)” value is on record as “low polyreactivity”.

Regarding “QVQLVESGGGLVQAGGSLRLSCAASGSTFFHNAMGWYRQAPGKERELVAAINWNGGSTYYADSVKGRFTISRDNAKNTVYLQMNSLKPEDTAVYYCAADIYTYLGAYYIGYYWGQGTQVTVSS”, the “polyreactivity (PSR sort gate)” value is given as “low polyreactivity”.

With “QVQLVESGGGLVQAGGSLRLSCAASGSTFFHYVMGWYRQAPGKERELVAAIRWSGGRTRYADSVKGRFTISRDNAKNTVYLQMNSLKPEDTAVYYCAAYRLSKPFYKYDYWGQGTQVTVSS”, the “polyreactivity (PSR sort gate)” value is listed as “high polyreactivity”.

For “QVQLVESGGGLVQAGGSLRLSCAASGSTFFLYAMGWYRQAPGKERELVAAISTTGGSTNYADSVKGRFTISRDNAKNTVYLQMNSLKPEDTAVYYCAAGPSAQSIYDHWGQGTQVTLSS”, the “polyreactivity (PSR sort gate)” value was “low polyreactivity”.

For the origin of these results see the nanobody polyreactivity screen of Harvey et al. (2022).
